Experimental data from patent US20160297884A1 (Pfizer, published 2016).

T1: Human BCMA (human, UniProt Q02223 1-54, limits assumed)
T1 construct: also called huBCMA; B-cell maturation antigen
T1 sequence (looked up): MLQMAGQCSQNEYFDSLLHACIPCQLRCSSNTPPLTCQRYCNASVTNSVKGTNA


Columns and labels:
Human BCMA = target: T1, Human BCMA; assay: SPR, IgG immobilised, human BCMA analyte
Procedure: (§1) All experiments were performed on a Bio-Rad Proteon XPR36 surface Plasmon resonance biosensor (Bio-Rad, Hercules, Calif.). […] The analysis temperature for the immobilization was 25° C. and the running buffer was HBS-T+(10 mM HEPES, 150 mM NaCl, 0.05% Tween-20, pH 7.4). Channels were activated in the analyte (horizontal) direction by injecting a mixture of 1 mM ECD and 0.25 mM NHS for 3 minutes at a flow rate of 30 μL/min. IgGs were immobilized on the activated spots by injecting them in the ligand (vertical) direction at 20 μg/mL in 10 mM Acetate pH 4.5 buffer for 1.5 minutes at […]. The activated surfaces were blocked by injecting 1M ethanolamine, pH 8.5 in the analyte direction for 3 minutes at 30 μL/min.
(§2) The analysis temperature for the BCMA binding analysis was 37° C. or 25° C. in a running buffer of HBS-T+, supplemented with 1 mg/mL BSA. A kinetic titration method was employed for the interaction analysis as described in Abdiche, et al. Human BCMA (huBCMA) or cynomolgus monkey BCMA (cyBCMA) analyte was injected in the analyte direction using a series of injections from low to high concentration. The concentrations used were 0.08 nM, 0.4 nM, 2 nM, 10 nM and 50 nM (a 5-membered series, with a 5-fold dilution factor and top concentration of 50 nM). The association time for a given analyte dilution was two minutes. Immediately after the 50 nM BCMA injection, dissociation was monitored for 2 hours.
(§3) The sensorgrams were double-referenced and fit to a 1:1 Langmuir with mass transport kinetic titration model in BIAevaluation Software version 4.1.1 (GE Lifesciences, Piscataway, N.J.).

Cynomolgus monkey BCMA = target: T2, Cynomolgus monkey BCMA (cynomolgus monkey); assay: SPR, IgG immobilised, cyno BCMA analyte
T2 construct: Soluble analyte in SPR; also called cyBCMA; Cyno BCMA
Procedure: as §1, §2, §3

Binder	Kd (Human BCMA) [nM]	koff (Human BCMA) [s⁻¹]	kon (Human BCMA) [M⁻¹ s⁻¹]	Kd (Cynomolgus monkey BCMA) [nM]	koff (Cynomolgus monkey BCMA) [s⁻¹]	kon (Cynomolgus monkey BCMA) [M⁻¹ s⁻¹]
C01_Rd4_0.6nM_C09 (antibody, V domains shown, IgG) VH: EVQLLESGGGLVQPGGSLRLSCAASGFTFSSYPMSWVRQAPGKGLEWVSAIGGSGGSLPYADSVKGRFTISRDNSKNTLYLQMNSLRAEDTAVYYCARYWPMDSWGQGTLVTVSS VL: EIVLTQSPGTLSLSPGERATLSCRASQSVSSLFLAWYQQKPGQAPRLLIYDASSRAPGIPDRFSGSGSGTDFTLTISRLEPEDFAVYYCQQYSAWPLTFGQGTKVEIK	0.545	0.00825	1.51e+07	1.77	0.00936	5.28e+06
COMBO_Rd4_0.6nM_C04 (antibody, V domains shown, IgG) VH: EVQLLESGGGLVQPGGSLRLSCAASGFTFSSYPMSWVRQAPGKGLEWVSAHIGSGGSTYYADSVKGRFTISRDNSKNTLYLQMNSLRAEDTAVYYCARYWPMDSWGQGTLVTVSS VL: EIVLTQSPGTLSLSPGERATLSCRASQSVSSTYLAWYQQKPGQAPRLLMYDASIRATGIPDRFSGSGSGTDFTLTISRLEPEDFAVYYCQQYQSWPLTFGQGTKVEIK	0.015	0.000158	1.07e+07	0.039	0.000137	3.52e+06
C01_Rd4_6nM_C10 (antibody, V domains shown, IgG) VH: EVQLLESGGGLVQPGGSLRLSCAASGFTFSSYPMSWVRQAPGKGLEWVSAIGGSGGSLPYADSVKGRFTISRDNSKNTLYLQMNSLRAEDTAVYYCARYWPMDSWGQGTLVTVSS VL: EIVLTQSPGTLSLSPGERATLSCRASQSVSSVYLAWYQQKPGQAPRLLIYDASSRAPGIPDRFSGSGSGTDFTLTISRLEPEDFAVYYCQQYSTWPLTFGQGTKVEIK	0.162	0.00212	1.31e+07	0.493	0.00219	4.44e+06
C01_Rd4_6nM_C12 (antibody, V domains shown, IgG; also called PC1C12) VH: EVQLLESGGGLVQPGGSLRLSCAASGFTFSSYPMSWVRQAPGKGLEWVSAIGGSGGWSYYADSVKGRFTISRDNSKNTLYLQMNSLRAEDTAVYYCARYWPMDSWGQGTLVTVSS VL: EIVLTQSPGTLSLSPGERATLSCWLSQSVSSTYLAWYQQKPGQAPRLLIYDASSRAPGIPDRFSGSGSGTDFTLTISRLEPEDFAVYYCQQYSEWPLTFGQGTKVEIK	0.535	0.00649	1.21e+07	0.82	0.0037	4.51e+06
COMBO_Rd4_0.6nM_C05 (antibody, V domains shown, IgG) VH: EVQLLESGGGLVQPGGSLRLSCAASGFTFSSYAMNWVRQAPGKGLEWVSAIGGSGGSTYYADSVKGRFTISRDNSKNTLYLQMNSLRAEDTAVYYCARYWPMSLWGQGTLVTVSS VL: EIVLTQSPGTLSLSPGERATLSCRASQSVSSTYLAWYQQKPGQAPRLLMYDASIRATGIPDRFSGSGSGTDFTLTISRLEPEDFAVYYCQQYMSWPLTFGQGTKVEIK	0.115	0.000497	4.32e+06	0.886	0.00172	1.94e+06
C01_Rd4_6nM_C09 (antibody, V domains shown, IgG) VH: EVQLLESGGGLVQPGGSLRLSCAASGFTFSSYPMSWVRQAPGKGLEWVSATVGSGGSIGYADSVKGRFTISRDNSKNTLYLQMNSLRAEDTAVYYCARYWPMDSWGQGTLVTVSS VL: EIVLTQSPGTLSLSPGERATLSCACSQSVSSTYLAWYQQKPGQAPRLLIYDASSRAPGIPDRFSGSGSGTDFTLTISRLEPEDFAVYYCQQYSAWPLTFGQGTKVEIK	0.811	0.0128	1.58e+07	2.33	0.00868	3.73e+06
C01_Rd4_6nM_C20 (antibody, V domains shown, IgG) VH: EVQLLESGGGLVQPGGSLRLSCAASGFTFSSYPMSWVRQAPGKGLEWVSAIGGSGGSLPYADSVKGRFTISRDNSKNTLYLQMNSLRAEDTAVYYCARYWPMDSWGQGTLVTVSS VL: EIVLTQSPGTLSLSPGERATLSCRASQSVSPLYLAWYQQKPGQAPRLLIYDASSRAPGIPDRFSGSGSGTDFTLTISRLEPEDFAVYYCQQYSAFPLTFGQGTKVEIK	0.459	0.00276	6.02e+06	1.74	0.00625	3.6e+06
C01_Rd4_0.6nM_C16 (antibody, V domains shown, IgG) VH: EVQLLESGGGLVQPGGSLRLSCAASGFTFSSYPMSWVRQAPGKGLEWVSAIGGSGGSLPYADSVKGRFTISRDNSKNTLYLQMNSLRAEDTAVYYCARYWPMDSWGQGTLVTVSS VL: EIVLTQSPGTLSLSPGERATLSCRASQSVSSTYLAWYQQKPGQAPRLLIYDASSRAPGIPDRFSGSGSGTDFTLTISRLEPEDFAVYYCQQYSSWPLTFGQGTKVEIK	0.407	0.0063	1.55e+07	0.939	0.00464	4.95e+06
C01_Rd4_6nM_C26 (antibody, V domains shown, IgG) VH: EVQLLESGGGLVQPGGSLRLSCAASGFTFSSYPMSWVRQAPGKGLEWVSAIGGSGGSLPYADSVKGRFTISRDNSKNTLYLQMNSLRAEDTAVYYCARYWPMDSWGQGTLVTVSS VL: EIVLTQSPGTLSLSPGERATLSCRASQSVSALYLAWYQQKPGQAPRLLIYDASSRAPGIPDRFSGSGSGTDFTLTISRLEPEDFAVYYCQQYSAWPLTFGQGTKVEIK	0.09	0.00136	1.5e+07	0.419	0.00199	4.75e+06
C01_Rd4_6nM_C04 (antibody, V domains shown, IgG) VH: EVQLLESGGGLVQPGGSLRLSCAASGFTFSSYPMSWVRQAPGKGLEWVSAIGGSGGSLPYADSVKGRFTISRDNSKNTLYLQMNSLRAEDTAVYYCARYWPMDSWGQGTLVTVSS VL: EIVLTQSPGTLSLSPGERATLSCCSSQSVSSTYLAWYQQKPGQAPRLLIYDASSRAPGIPDRFSGSGSGTDFTLTISRLEPEDFAVYYCQQYSAFPLTFGQGTKVEIK	2.13	0.0497	2.33e+07	5.16	0.0327	6.34e+06
COMBO_Rd4_0.6nM_C09 (antibody, V domains shown, IgG) VH: EVQLLESGGGLVQPGGSLRLSCAASGFTFSSYPMSWVRQAPGKGLEWVSAIGGSGGSLPYADSVKGRFTISRDNSKNTLYLQMNSLRAEDTAVYYCARYWPMDIWGQGTLVTVSS VL: EIVLTQSPGTLSLSPGERATLSCRASQSVSSTYLAWYQQKPGQAPRLLMYDASIRATGIPDRFSGSGSGTDFTLTISRLEPEDFAVYYCQQYQEWPLTFGQGTKVEIK	0.031	0.000319	1.04e+07	0.092	0.000346	3.77e+06
C01_Rd4_0.6nM_C27 (antibody, V domains shown, IgG) VH: EVQLLESGGGLVQPGGSLRLSCAASGFTFSSYPMSWVRQAPGKGLEWVSAIGGSGGSLPYADSVKGRFTISRDNSKNTLYLQMNSLRAEDTAVYYCARYWPMDSWGQGTLVTVSS VL: EIVLTQSPGTLSLSPGERATLSCRASQSVSSTYLAWYQQKPGQAPRLLIYDASSRAPGIPDRFSGSGSGTDFTLTISRLEPEDFAVYYCQQYSRWPLTFGQGTKVEIK	0.303	0.00374	1.23e+07	0.852	0.00285	3.34e+06
COMBO_Rd4_0.6nM_C11 (antibody, V domains shown, IgG) VH: EVQLLESGGGLVQPGGSLRLSCAASGFTFSSYPMSWVRQAPGKGLEWVSAALGSGGSTYYADSVKGRFTISRDNSKNTLYLQMNSLRAEDTAVYYCARYWPMSLWGQGTLVTVSS VL: EIVLTQSPGTLSLSPGERATLSCRASQSVSVRYLAWYQQKPGQAPRLLMYDASIRATGIPDRFSGSGSGTDFTLTISRLEPEDFAVYYCQQYGSWPITFGQGTKVEIK	0.207	0.00106	5.11e+06	1.92	0.00423	2.2e+06
COMBO_Rd4_0.6nM_C02 (antibody, V domains shown, IgG) VH: EVQLLESGGGLVQPGGSLRLSCAASGFTFSSYPMSWVRQAPGKGLEWVSAIGGSGGSLPYADSVKGRFTISRDNSKNTLYLQMNSLRAEDTAVYYCARYWPMDSWGQGTLVTVSS VL: EIVLTQSPGTLSLSPGERATLSCRASIAVSSTYLAWYQQKPGQAPRLLMYDASIRATGIPDRFSGSGSGTDFTLTISRLEPEDFAVYYCQQYMVWPLTFGQGTKVEIK	0.022	0.000185	8.57e+06	0.164	0.000494	3.01e+06
C01_Rd4_6nM_C24 (antibody, V domains shown, IgG) VH: EVQLLESGGGLVQPGGSLRLSCAASGFTFSSYPMSWVRQAPGKGLEWVSAIGGSGGSLPYADSVKGRFTISRDNSKNTLYLQMNSLRAEDTAVYYCARYWPMDSWGQGTLVTVSS VL: EIVLTQSPGTLSLSPGERATLSCRASQSVSPEYLAWYQQKPGQAPRLLIYDASSRAPGIPDRFSGSGSGTDFTLTISRLEPEDFAVYYCQQYSVWPLTFGQGTKVEIK	0.467	0.00348	7.47e+06	0.281	0.000891	3.17e+06
